Data: patent US20260062466A1 (WASHINGTON UNIVERSITY, published 2026)

B1: 516.A10 (antibody, V domains shown)
VH: QVQMVESGGGVVQPGRSLRLSCAASGFTFSSYPIHWVRQVPGKGLEWVAVISYDGSNKYYADSVKGRFTISRDNSKNTLYLQMNSLRPEDTAVYFCARGRGDFELNSFDYWGQGTLVTVSS
VL: EIVLTQSPGTLSLSPGERATLSCRASQSVSSSYLGWYQQKLGQAPRLLIYGASSRATGIPDRFSGSGSGTDFTLTISRLEPEDFAVYYCQQYGSTPFTFGPGTKVDIK
B2: 506.C01 (antibody, V domains shown)
VH: QVQLQESGPGLVKPSQTLSLTCTVSGGSISSDDYYWTWIRLPPGKGLEWIGYIFYTGGTYYNPSLKSRVTISLDRSKNQFSLKLSSVTAADTAVYFCARAPETYCSTTNCYKGYFDSWGQGTLVTVSS
VL: DIQMTQSPSSVSASVGDRVTITCRASQGISSWLGWYQQKPGKAPKLLIYAASSLQSGVPSRFSGSGSGTDFTLTISSLQPEDFATYYCQQANSFPRTFGQGTKVEIK
B3: 506.A08 (antibody, V domains shown)
VH: EEQLVESGGGLVQPGGSLRLSCAASGFTFSSYSMNWVRQAPGKGLEWVSYISSSSSTIHYADSVKGRFTISRDNAKNSLYLQMNSLRAEDTAVYYCAREGNSGYEPLDYWGQGTLVTVSS
VL: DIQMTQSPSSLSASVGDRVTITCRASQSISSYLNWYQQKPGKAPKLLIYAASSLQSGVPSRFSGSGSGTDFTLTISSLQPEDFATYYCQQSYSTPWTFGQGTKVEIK

Experiments:
CHIKV-LR 2006 (virus) = CHIKV-LR 2006 (virus) (Chikungunya virus strain LR 2006); assay: cell-based or functional assay
CHIKV-37997 (virus) = CHIKV-37997 (virus) (Chikungunya virus strain 37997, UniProt Q5XXP3 326-748; Q5XXP3 810-1248); assay: cell-based or functional assay
Chain of CHIKV-37997 (virus) (Q5XXP3 326-748 limits assumed, chain 1 of 2): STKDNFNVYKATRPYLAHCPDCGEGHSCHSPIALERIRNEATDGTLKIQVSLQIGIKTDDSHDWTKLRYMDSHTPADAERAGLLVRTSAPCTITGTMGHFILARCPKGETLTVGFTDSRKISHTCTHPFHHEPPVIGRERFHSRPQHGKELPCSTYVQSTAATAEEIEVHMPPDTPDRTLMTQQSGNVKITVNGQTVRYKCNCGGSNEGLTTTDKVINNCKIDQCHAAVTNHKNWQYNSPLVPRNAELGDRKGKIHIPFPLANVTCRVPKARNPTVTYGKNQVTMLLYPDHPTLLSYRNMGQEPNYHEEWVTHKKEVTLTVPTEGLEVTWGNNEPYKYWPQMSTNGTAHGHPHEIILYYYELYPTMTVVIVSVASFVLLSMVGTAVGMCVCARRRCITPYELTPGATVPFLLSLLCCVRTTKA
Chain of CHIKV-37997 (virus) (Q5XXP3 810-1248 limits assumed, chain 2 of 2): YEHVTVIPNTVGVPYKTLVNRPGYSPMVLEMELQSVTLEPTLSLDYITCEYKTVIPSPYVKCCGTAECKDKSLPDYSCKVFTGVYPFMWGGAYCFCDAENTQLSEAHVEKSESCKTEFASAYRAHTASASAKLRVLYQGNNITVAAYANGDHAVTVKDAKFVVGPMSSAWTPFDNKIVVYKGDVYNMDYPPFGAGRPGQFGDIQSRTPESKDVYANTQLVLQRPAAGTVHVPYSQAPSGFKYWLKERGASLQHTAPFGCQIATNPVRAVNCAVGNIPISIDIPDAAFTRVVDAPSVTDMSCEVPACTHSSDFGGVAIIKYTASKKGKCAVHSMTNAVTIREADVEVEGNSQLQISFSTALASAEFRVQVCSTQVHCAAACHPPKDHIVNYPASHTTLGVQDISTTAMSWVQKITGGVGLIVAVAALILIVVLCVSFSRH

| Binder | FRNT neutralisation, LR 2006 EC50 (CHIKV-LR 2006 (virus)) [ng/mL] | FRNT neutralisation, 37997 EC50 (CHIKV-37997 (virus)) [ng/mL] |
| --- | --- | --- |
| B1 | 4 | 128 |
| B2 | 8 | 2 |
| B3 | 110 | 72 |
